# Measurements from US20250092160A1 (published 2025).
# Numbering of substitutions follows the chain as printed.
# B1: HB1905 (bispecific antibody, human IgG1, kappa)
# light 1: DIQMTQTTSSLSASLGDRVTISCRASQDISKYLNWYQEKPDGTVKLLIYHTSRLHSGVPSRFSGSGSGTDYSLTISNLEQEDIATYFCQQGNTLPYTFGGGTKLEIKRTVAAPSVFIFPPSDEQLKSGTASVKCLLNNFYPREAKVQWKVDNALQSGNSQESVTEQDSKDSTYSLSSTLTLSKADYEKHKVYACEVTHQGLSSPVTKSFNRGEC
# heavy 1: EVKLQESGPGLVAPSQSLSVTCTVSGVSLPDYGVSWIRKPPRKGLEWLGVIWGSETTYYNSALKSRLTIIKDNSKSQVFLKMSSLQTDDTAIYYCAKHYYYGGSYAMDYWGQGTSVTVSSASTKGPSVFPLAPSSKSTSGGTAALGCLVKDYFPEPVTVSWNSGALTSGVHTFPAVLQSSGLYSLESVVTVPSSSLGTQTYICNVNHKPSNTKVDKKVEPKSCTDWSPYADQSIKVRISLKSALGDKAYEWNDNEMYLFRSSVAYAMRQYFLKVKNQMILFGEEDVRVANLKPRISFNFFVTAPKNVSDIIPRTEVEKAIRMSRSRINDAFRLNDNSLEFLGIQPTLGPPNQPPVSTSTSPTRSMAPGAVHLPQPVSTRDKTHTCPPCPAPELLGGPSVFLFPPKPKDTLMISRTPEVTCVVVDVSHEDPEVKFNWYVDGVEVHNAKTKPREEQYNSTYRVVSVLTVLHQDWLNGKEYKCKVSNKALPAPIEKTISKAKGQPREPQVCTLPPSRDELTKNQVSLSCAVKGFYPSDIAVEWESNGQPENNYKTTPPVLDSDGSFFLVSKLTVDKSRWQQGNVFSCSVMHEALHNRFTQKSLSLSPG
# light 2: QVQLQQPGAELVKPGASVKMSCKASGYTFTSYNMHWVKKTPGRGLEWIGAIYPGNGDTSYNQKFKGKATLTADKSSSTAYMQLSSLTSEDSAVYYCARSTYYGGDWYFNVWGAGTLVTVSSASVAAPSVFIFPPSDEQLKSGTASVECLLNNFYPREAKVQWKVDNALQSGNSQESVTEQDSKDSTYSLSSTLTLSKADYEKHKVYACEVTHQGLSSPVTKSFNRGEC
# heavy 2: not shown
# notes: also called anti-CD20/anti-CD19 bispecific GEM-DIMER
# B2: HB1906 (bispecific antibody, human IgG1, kappa)
# light 1: B1 light 1
# heavy 1: B1 heavy 1
# light 2: B1 light 2 with K39E
# heavy 2: not shown
# notes: as for B1
# B3: B19c66 (antibody, human IgG1, kappa)
# light: not shown
# heavy: not shown
# chain: CPPCPAPELLGGPSVFLFPPKPKDTLMISRTPEVTCVVVDVSHEDPEVKFNWYVDGVEVHNAKTKPREEQYNSTYRVVSVLTVLHQDWLNGKEYKCKVSNKALPAPIEKTISKAKGQPREPQVYVYPPSRDELTKNQVSLTCLVKGFYPSDIAVEWESNGQPENNYKTTPPVLDSDGSFALVSKLTVDKSRWQQGNVFSCSVMHEALHNHYTQKSLSLSPGK
# B4: B19c66AAC9 (antibody, human IgG1, kappa)
# light: not shown
# heavy: QVQLQQSGAELVRPGSSVKISCKASGYAFSSYWMNWVKQRPGQGLEWIGQIWPGDGDTNYNGKFKGKATLTADESSSTAYMQLSSLASEDSAVYFCARRETTTVGRYYYAMDYWGQGTTVTVSSASTKGPSVFPLAPSSKSTSGGTAALGCLVKDYFPEPVTVSWNSGALTSGVHTFPAVLQSSGLYSLSSVVTVPSSSLGTQTYICNVNHKPSNTKVDKKVEPKSCDKTHTCPPCPAPKRRGGPSVFLFPPKPKDTLMISRTPEVTCVVVDVSHEDPEVKFNWYVDGVEVHNAKTKPREEQYNSTYRVVSVLTVLHQDWLNGKEYKCKVSNKALPAPIEKTISKAKGQPREPQVYVLPPSRDELTKNQVSLLCLVKGFYPSDIAVEWESNGQPENNYLTWPPVLDSDGSFFLYSKLTVDKSRWQQGNVFSCSVMHEALHNHYTQKSLSLSPGK
# chain: B3 chain with L9D, L10E
# B5: Rituxan (antibody)
# VH: not shown
# VL: QIVLSQSPAILSASPGEKVTMTCRASSSVSYIHWFQQKPGSSPKPWIYATSNLASGVPVRFSGSGSGTSYSLTISRVEAEDAATYYCQQWTSNPPTFGGGTKLEIKRTVAAPSVFIFPPSDEQLKSGTASVVCLLNNFYPREAKVQWKVDNALQSGNSQESVTEQDSKDSTYSLSSTLTLSKADYEKHKVYACEVTHQGLSSPVTKSFNRGEC
# How the values were obtained:
# CD64 FcRγI [1] = molecular target: T1, CD64 FcRγI (human, UniProt P12314 16-288); assay: SPR Carterra LSA
# T1 construct: also called Fc gamma RI (CD64)
# T1 sequence (P12314 16-288 limits assumed): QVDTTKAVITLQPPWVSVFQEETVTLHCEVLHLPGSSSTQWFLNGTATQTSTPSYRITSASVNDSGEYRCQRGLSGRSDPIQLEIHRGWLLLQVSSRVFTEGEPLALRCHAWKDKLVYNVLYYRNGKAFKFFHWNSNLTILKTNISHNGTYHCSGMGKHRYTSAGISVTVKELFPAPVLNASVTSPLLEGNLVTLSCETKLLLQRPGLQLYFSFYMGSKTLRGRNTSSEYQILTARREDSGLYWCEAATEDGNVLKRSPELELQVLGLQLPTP
# CD16a 158V FcRγIIIa [2] = molecular target: T2, CD16a 158V FcRγIIIa (human, UniProt P08637 17-208); assay: SPR Carterra LSA
# T2 construct: also called FcgRIIIa 158 V _ CD 16 a 158 V; Fc gamma RIIIa (CD16a) (Val176)
# T2 sequence (P08637 17-208 F176V limits assumed): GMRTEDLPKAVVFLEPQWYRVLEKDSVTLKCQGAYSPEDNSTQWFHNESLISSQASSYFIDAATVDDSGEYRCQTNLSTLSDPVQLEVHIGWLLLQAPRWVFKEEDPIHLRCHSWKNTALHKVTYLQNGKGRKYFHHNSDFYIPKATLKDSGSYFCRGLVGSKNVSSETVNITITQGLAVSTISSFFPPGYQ
# CD32a 131R FcRγIIa [3] = molecular target: T3, CD32a 131R FcRγIIa (human, UniProt P12318 36-218); assay: SPR Carterra LSA
# T3 construct: also called Fc gamma RIIa (CD32) (Arg167)
# T3 sequence (looked up): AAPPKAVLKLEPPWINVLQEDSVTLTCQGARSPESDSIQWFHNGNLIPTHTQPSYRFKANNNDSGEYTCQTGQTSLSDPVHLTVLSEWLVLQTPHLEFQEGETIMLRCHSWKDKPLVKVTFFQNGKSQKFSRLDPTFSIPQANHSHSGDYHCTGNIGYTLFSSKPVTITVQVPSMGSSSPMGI
# [4] = molecular target: T4, Recombinant CD19 (ACROBiosystems Cat #CD9-H52H2) (UniProt P15391 20-291); assay: SPR Carterra LSA
# T4 construct: also called monovalent CD19
# T4 sequence: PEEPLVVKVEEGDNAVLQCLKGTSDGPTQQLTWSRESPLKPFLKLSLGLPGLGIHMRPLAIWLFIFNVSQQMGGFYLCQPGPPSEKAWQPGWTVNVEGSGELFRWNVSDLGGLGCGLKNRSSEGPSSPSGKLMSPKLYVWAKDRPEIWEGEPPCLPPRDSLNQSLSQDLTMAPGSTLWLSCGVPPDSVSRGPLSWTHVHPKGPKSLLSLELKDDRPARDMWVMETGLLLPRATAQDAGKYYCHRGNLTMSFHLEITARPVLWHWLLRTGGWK
# [5] = molecular target: T5, Recombinant CD20 (ACROBiosystems Cat #CD0-H52H3) (UniProt P11836 1-297); assay: SPR Carterra LSA
# T5 construct: also called monovalent CD20
# T5 sequence: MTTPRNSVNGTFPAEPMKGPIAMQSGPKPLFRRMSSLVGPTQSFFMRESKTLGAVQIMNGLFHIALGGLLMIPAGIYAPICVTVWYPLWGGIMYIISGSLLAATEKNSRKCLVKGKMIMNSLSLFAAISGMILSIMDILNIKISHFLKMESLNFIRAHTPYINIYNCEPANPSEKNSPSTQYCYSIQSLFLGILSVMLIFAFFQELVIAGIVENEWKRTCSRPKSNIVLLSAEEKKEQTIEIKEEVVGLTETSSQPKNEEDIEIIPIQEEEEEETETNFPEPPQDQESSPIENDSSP
# CD19 (Table 9) = molecular target: T6, CD19 (Table 9) (UniProt P15391 20-291)
# T6 sequence (looked up): T4 sequence
# CD64 FcRγI [6] = molecular target: T1, CD64 FcRγI
# CD16a 158V FcRγIIIa [7] = molecular target: T2, CD16a 158V FcRγIIIa
# CD32a 131H FcRγIIa = molecular target: T7, CD32a 131H FcRγIIa (human, UniProt P12318 36-218)
# T7 sequence (looked up): T3 sequence (looked up) with R132H
# CD32a 131R FcRγIIa [8] = molecular target: T3, CD32a 131R FcRγIIa
# CD16b FcRγIIIb = CD16b FcRγIIIb (human, UniProt O75015 20-208)
# Sequence of CD16b FcRγIIIb (O75015 20-208 limits assumed): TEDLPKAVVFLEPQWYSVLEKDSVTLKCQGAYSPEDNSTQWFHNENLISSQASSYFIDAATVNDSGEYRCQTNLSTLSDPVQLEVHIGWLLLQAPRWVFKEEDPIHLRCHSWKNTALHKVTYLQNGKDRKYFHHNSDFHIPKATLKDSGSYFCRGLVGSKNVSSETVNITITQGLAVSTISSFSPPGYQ
# CD32b/c FcRγIIb = molecular target: T8, CD32b/c FcRγIIb (human, UniProt P31994 46-217)
# T8 sequence (looked up): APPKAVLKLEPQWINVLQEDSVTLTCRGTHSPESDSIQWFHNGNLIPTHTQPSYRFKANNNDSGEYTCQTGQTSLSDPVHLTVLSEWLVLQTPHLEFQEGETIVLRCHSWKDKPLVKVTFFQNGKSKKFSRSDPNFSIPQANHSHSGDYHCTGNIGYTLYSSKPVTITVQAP
Binder,binding result (CD64 FcRγI [1]),binding result (CD16a 158V FcRγIIIa [2]),binding result (CD32a 131R FcRγIIa [3]),binding result [4],binding result [5],Kd (CD19 (Table 9)),other results
B1,binds,binds,binds,binds,binds,–,–
B2,binds,binds,binds,binds,binds,–,–
B3,–,–,–,–,–,0.0218 µM,–
B4,–,–,–,–,–,0.021 µM,–
B5,–,–,–,–,–,–,Kd (CD64 FcRγI [6]): 0.0528 µM; Kd (CD16a 158V FcRγIIIa [7]): 0.715 µM; Kd (CD32a 131H FcRγIIa): 0.892 µM; Kd (CD32a 131R FcRγIIa [8]): 1.25 µM; Kd (CD16b FcRγIIIb): 1.53 µM; Kd (CD32b/c FcRγIIb): 1.52 µM
